In paper PMC7560607, “Synapse type-specific proteomic dissection identifies IgSF8 as a hippocampal CA3 microcircuit organizer” (Nature Communications, 2020) one finds Kd data, which are given here for 2 molecules.

In test [1] the target is T1, Tenascin-R, AP- or Fc-tagged (interactome library) ( (human or mouse sequence …, UniProt Q8BYI9 32-1358)).
T1 construct: In the BLI experiment only the Fc fusion stood, captured from conditioned medium of EXPI293 cells on anti-human Fc sensors; also called TenR; TenR-Fc/AP; source: Expi293 cells, transfected, conditioned medium used without purification; not shown: Fc (human IgG1) in the Fc fusion, C-terminal, kept; alkaline phosphatase (human) in the AP fusion, C-terminal, kept
T1 sequence (looked up): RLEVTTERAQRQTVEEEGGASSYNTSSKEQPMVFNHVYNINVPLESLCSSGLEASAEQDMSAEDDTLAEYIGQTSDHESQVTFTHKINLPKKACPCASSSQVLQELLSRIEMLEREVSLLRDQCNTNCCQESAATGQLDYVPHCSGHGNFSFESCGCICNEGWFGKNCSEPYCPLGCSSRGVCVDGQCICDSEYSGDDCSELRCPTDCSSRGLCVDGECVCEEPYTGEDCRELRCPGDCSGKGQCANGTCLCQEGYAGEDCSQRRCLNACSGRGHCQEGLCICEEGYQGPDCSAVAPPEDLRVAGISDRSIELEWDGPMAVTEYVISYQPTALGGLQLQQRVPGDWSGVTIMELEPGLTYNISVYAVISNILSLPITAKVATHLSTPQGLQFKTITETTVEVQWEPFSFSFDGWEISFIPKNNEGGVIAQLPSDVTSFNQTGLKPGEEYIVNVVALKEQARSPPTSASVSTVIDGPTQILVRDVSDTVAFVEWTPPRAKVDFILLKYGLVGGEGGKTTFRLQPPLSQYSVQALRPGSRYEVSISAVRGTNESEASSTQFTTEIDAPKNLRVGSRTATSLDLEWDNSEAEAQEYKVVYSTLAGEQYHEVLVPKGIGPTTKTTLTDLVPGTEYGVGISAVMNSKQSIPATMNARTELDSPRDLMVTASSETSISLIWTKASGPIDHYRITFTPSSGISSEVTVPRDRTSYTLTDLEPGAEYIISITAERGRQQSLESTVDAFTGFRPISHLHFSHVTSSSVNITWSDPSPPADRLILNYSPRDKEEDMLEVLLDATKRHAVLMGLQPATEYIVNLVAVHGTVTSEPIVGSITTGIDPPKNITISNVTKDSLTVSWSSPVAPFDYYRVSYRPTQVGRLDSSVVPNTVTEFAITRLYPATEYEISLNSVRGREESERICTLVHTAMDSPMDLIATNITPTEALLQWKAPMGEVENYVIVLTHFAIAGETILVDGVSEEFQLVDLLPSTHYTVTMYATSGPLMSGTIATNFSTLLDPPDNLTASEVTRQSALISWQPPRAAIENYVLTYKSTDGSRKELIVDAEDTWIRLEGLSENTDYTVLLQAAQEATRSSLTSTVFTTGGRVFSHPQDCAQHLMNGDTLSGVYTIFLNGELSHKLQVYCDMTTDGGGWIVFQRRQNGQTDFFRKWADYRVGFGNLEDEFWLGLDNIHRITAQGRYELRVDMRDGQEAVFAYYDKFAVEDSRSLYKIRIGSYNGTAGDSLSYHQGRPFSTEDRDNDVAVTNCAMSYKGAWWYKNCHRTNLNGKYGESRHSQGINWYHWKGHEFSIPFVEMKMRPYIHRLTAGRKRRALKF
The experiment in a line: BLI; BLItz, RT; TenR-Fc captured from EXPI293 conditioned medium on anti-human Fc sensors; purified IgSF8 34-0.133 µM in twofold dilution; 10 mM Hepes pH 7.4, 150 mM NaCl, 1 mM CaCl2, 0.2% Tween20, 1% BSA; KD from response vs concentration; Fc-only sensor subtracted. The settings on record: one partner purified.

In test [2] the target is T2, TenR-Fc (Tenascin-R fused to the Fc region of human IgG1) ( (human or mouse sequences …, UniProt Q8BYI9 32-1358)).
T2 construct: Tenascin-R, secreted ECM protein; also called Tenascin-R-Fc; source: EXPI293 cells, transfected, conditioned medium; not shown: Fc (human IgG1), C-terminal, kept
T2 sequence (looked up): T1 sequence (looked up)
The experiment in a line: BLI; BLItz, room temperature; TenR-Fc captured from conditioned medium on anti-human Fc biosensors; purified IgSF8 34-0.133 uM in twofold dilution; association in 10 mM Hepes pH 7.4, 150 mM NaCl, 1 mM CaCl2, 0.2% Tween20, 1% BSA; Fc-only sensor subtracted; binding response against concentration fitted as one site specific binding. The conditions noted are these: one partner purified. A general note: BLI is a label-free optical method that tracks binding on a fibre tip over time.

B1: purified IgSF8 (BLI analyte) (natural protein)
chain: RQVHVPRGPLYRVAGTAVSISCNVSDYEGPAQQDFEWFMYRPEAPATSLGIVSTKDSQFSYAVFGPRVASGDLQVQRLKGDSVVLKIARLQAQDSGFYECYTPSTDTQYLGNYSAKVELRVLPDELQVSAAPPGPRGRQAATSPSRLTVHEGQELALGCLAQTKTKKHTHLSVSFGRAIPEAPVGRATLQEVVGLRSDMAVEAGAPYAERLASGELRLSKEGTDRYRMVVGGAQAGDSGTYHCTAAEWIQDPDGSWVQVAEKRAVLAHVDVQTLSSQLAVTVGPGERRIGPGEPLELLCNVSGALPPPGRHAAYSVGWEMAPAGAPGPGRLVAQLDTEGIGSLGPGYEDRHIAMEKVASRTYRLRLEAARPADAGTYRCLAKAYVRGSGTRLREAASARSRPLPVHVREEGVVLEAVAWLAGGTVYRGETASLLCNISVRGGPPGLRLAASWWVERPEEGELSSGPAQLVGGVGQDGVAELGVRPGGGPVSVELVGPRSHRLRLHGLGPEDEGIYHCAPSAWVQHADYSWYQAGSARSGPVTVYPYTHAVDT
modifications: Same molecule as Sm1. Secreted ectodomain, likely N-glycosylated; limits by convention (UniProt extracellular domain without the signal peptide).
B1: the Kd in test [1] was ~1.4 µM.

B2: IgSF8 (purified IgSF8 protein used as analyte in biolayer interferometry) (receptor)
chain: B1 chain
modifications: Secreted ectodomain, likely N-glycosylated. Limits are the UniProt extracellular domain without the signal peptide. Mouse is inferred from the mouse IgSF8 cDNA (BC048387) and the mouse IgSF8-His used
Take B2: binding in test [2] was put at a Kd of 1.39 µM.

In general, Kd refers to the equilibrium constant for the complex coming apart. Read a low Kd as a tighter complex.
